Measured values as given in patent US20230048360A1 (EUREKA THERAPEUTICS, published 2023).

B1: GC33 L2K (bispecific antibody, V domains shown)
VH: QVQLQQSGAELVKPGASVKLSCKASGYTFTDYEMHWVKQTPVHGLKWMIGALDPKTGDTAYSQKFKGKATLTADKSSSTAYMELRSLTSEDSAVYYCTRFYSYTYWGQGTLVTVSA
VL: DVVMTQTPLSLPVSLGDQASISCRSSQSLVHSNGNTYLHWYLQKPGQSPKLLIYKVSNRFSGVPDRFSGSGSGTDFTLKISRVEAEDLGVYFCSQNTHVPPTFGSGTKLEIK
notes: Tested as a single-chain tandem di-scFv: scFv of GC33 fused to an anti-human CD3 epsilon scFv, with a hexahistidine tag; also called GC33 antibody converted to an L2K
B2: anti-GPC3 mIgG1 clone A-51 (antibody, V domains shown)
VH: QVQLVQSGAEVKKPGSSVKVSCKASGGAFSSYAISWVRQAPGQGLEWMGGIIPIFGTANYAQKFQGRVTITADESTSTAYMELSSLRSEDTAVYYCARMLYLSGRYYWDSWGQGTLVTVSS
VL: QAVLTQPSSASGAPGQRVTISCTGGSSNIGAGYDVHWYQQLPGTAPKLLIYGNSNRPSGVPDRFSGSKSGTSASLAITGLQAEDEADYYCQSYDSSLSGYVFGTGTKVTVLG
notes: Fused to mouse IgG1 heavy chain and light chain constant regions
B3: GPC3A-62 phage clone (scFv)
scFv: QSVLTQPPSVSGAPGQRVTISCTGSSSNIGAGYDVHWYQQLPGTAPKLLIYGNSNWPSGVPDRFSGSKSGTSASLAITGLRAEDEADYYCQSYDSSLSGSYVFGTGTKVTVLGSRGGGGSGGGGSGGGGSLEMAQMQLVQSGSELKKPGASVKVSCKASGGTFSSYAISWVRQAPGQGLEWMGGIIPKIGTANYAQKFQGRVTITADESTSTAYMELSSLRSEDTAMYYCARMYMDMGWGWGYWDWWGQGTLVTVSS
notes: also called GPC3A-062
B4: anti-GPC3 mIgG1 clone A-64 (antibody, V domains shown)
VH: QMQLVQSGAEVKKPGASVKVSCKASGYTFTIYGISWVRQAPGQGLEWMGWISPYNDNTIYAQKVQGRVTMTTDTSTSTAYMELRSLRSDDTAVYYCARMGVGWGYAQDSWGQGTLVTVSS
VL: LPVLTQPPSLSVAPGKTARLTCGGNNIGSKSVHWYHQKPGQAPVLVVYDDTDRPSGIPERFSGSNSGNTAALTISRVEVGDEADYYCQVWDRSSAHWVFGGGTKLTVLG
notes: as for B2
B5: GPC3A-53 mIgG1 clone (antibody, V domains shown)
VH: QLQLQESGPGLVKPSETLSLTCTVSGGSISSSSYYWGWIRQPPGKGLEWIGSIYYSGSTYYNPSLKSRVTISVDTSKNQFSLKLSSVTAADTAVYYCARWWSGSYDTWGQGTLVTVSS
VL: QSVLTQPPSASAAPGQRVTISCSGTSSNIGSNYVWWYQQLPGAAPRLLIYGNSNRPSGVPDRFSGSKSGTSASLAITGLQAEDEADYYCQSYDSSLSGSNVFGTGTKVTVLG
notes: Mouse chimeric IgG1; also called GPC3A mIgG1 clone A-53
B6: GPC3A-38 phage clone (scFv)
scFv: QSVLTQPPSVSVAPGKTARITCGGNNIGSKSVHWYQQKPGQAPVLVIYYDSDRPSGIPERFSGSNSGNTATLTISRVEAGDEADYYCQVWDSSSDHVVFGGGTKLTVLGSRGGGGSGGGGSGGGGSLEMAQVQLVQSGAEVKKPGASVKVSCKASGYTFTSYYMHWVRQAPGQGLEWMGIINPSGGSTSYAQKFQGRVTMTRDTSTSTVYMELSSLRSEDTAVYYCARKVTGYDSWGQGTLVTVSS
notes: also called GPC3A-038

Assays:
[1] = biological target: T1, cell surface-bound human GPC3 on GPC3+ HepG2 cells (human, UniProt P51654 25-560, GPI anchor and heparin sulfate side chains, as the filing describes native GPC3); test: FACS titration on GPC3+ HepG2 cells, anti-His detection; the row is GC33 L2K by paragraph 806
T1 construct: Endogenous GPC3 of the HepG2 line; also called Glypican 3; native GPC3
Method: (§1) APC-conjugated anti-His tag mouse antibody (R&D Systems) was added in a volume of 100 μl, a 20-fold dilution of 5% FBS in PBS and 0.05% NaN₃ and incubated for 1 hour at 4° C. in the dark, then washed twice with PBS. The cells were fixed in 3-fold dilution of fixation buffer (BioLegend) in PBS in a volume of 150 μl. As a separate control, HepG2 cells were also incubated with APC-conjugated anti-His tag mouse antibody (R&D Systems) in the absence of any L2K bispecific antibody.

[2] = biological target: T1, cell surface-bound human GPC3 on GPC3+ …; test: apparent Kd from FACS on GPC3+ HepG2 cells; the row is GC33 L2K by paragraph 806
Method: as §1

[3] = biological target: T1, cell surface-bound human GPC3 on GPC3+ …; test: flow cytometry at 10 µg/mL, PE anti-mouse IgG detection
Method: Anti-GPC3 mIgG1 antibodies were tested for the binding towards GPC3-positive HepG2 and GPC3-negative SK-Hep1 cells by flow cytometry. 10 μg/mL of constructed antibody was added to cells on ice for 1 hour.

[4] = biological target: T1, cell surface-bound human GPC3 on GPC3+ …; test: FACS, phage on GPC3+ HepG2 cells
Method: The E-APLPHA™ scFv phage libraries were screened (panned) against human GPC3 by co-incubation with recombinant GPC3-expressing SK-Hep1 cells (SK-Hep1-GPC3), then confirmed by binding to GPC3+ HepG2 cells, both with flow cytometry (see Methods). 0.2 million SK-Hep1-GPC3 cells were co-incubated with the phage library (about 1×10⁷ pfu) for 1 hours at 4° C. The cell/phage mixture was washed in PBST, incubated with mouse anti-M13 antibody for 1 hour at 4° C., washed again in PBST, then incubated for 30 minutes in the dark at 4° C. with PE-conjugated anti-mouse IgG, and subjected to FACS analysis.
FACS was performed as described in Methods. […] Then cells were washed with PBS and fixed.

biotinylated rat GPC3 = biological target: T2, biotinylated rat GPC3 (rat, UniProt P13265 25-558, limits assumed, biotinylated (site not stated)); test: ELISA, biotinylated rat GPC3 on streptavidin plate
T2 construct: also called rat bt-GPC3; rat GPC3 peptide
T2 sequence (P13265 25-558 limits assumed): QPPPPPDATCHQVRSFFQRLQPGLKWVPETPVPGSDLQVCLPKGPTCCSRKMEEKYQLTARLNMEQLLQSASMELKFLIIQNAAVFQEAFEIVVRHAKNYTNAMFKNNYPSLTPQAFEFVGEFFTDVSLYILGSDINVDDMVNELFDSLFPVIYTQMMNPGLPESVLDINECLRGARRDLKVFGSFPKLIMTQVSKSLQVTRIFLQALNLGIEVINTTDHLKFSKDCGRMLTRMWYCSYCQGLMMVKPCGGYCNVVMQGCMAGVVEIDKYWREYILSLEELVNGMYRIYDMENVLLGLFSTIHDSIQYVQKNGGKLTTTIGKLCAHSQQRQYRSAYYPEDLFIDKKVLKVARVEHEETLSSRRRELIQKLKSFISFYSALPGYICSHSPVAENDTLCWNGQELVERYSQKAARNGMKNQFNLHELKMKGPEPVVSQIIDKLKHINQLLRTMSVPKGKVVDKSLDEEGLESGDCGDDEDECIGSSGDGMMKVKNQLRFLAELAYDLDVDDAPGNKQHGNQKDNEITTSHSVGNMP

Row | Binder | binding result [3] | binding result [4] | other results
1 | B1 |  |  | EC50 [1]: 0.14 µg/mL; Kd [2]: 2.7 nM
2 | B2 | binds |  | 
3 | B3 |  | binds | 
4 | B4 | binds |  | 
5 | B5 |  |  | binding result (biotinylated rat GPC3): no binding (tested: 5 µg/mL)
6 | B6 |  | binds | 
